This note sets out measurements from IntAct's records for PubMed 20850366.

B1: Mitochondrial fission 1 protein (Saccharomyces cerevisiae), P40515 (parent)
chain: MTKVDFWPTLKDAYEPLYPQQLEILRQQVVSEGGPTATIQSRFNYAWGLIKSTDVNDERLGVKILTDIYKEAESRRRECLYYLTIGCYKLGEYSMAKRYVDTLFEHERNNKQVGALKSMVEDKIQKETLKGVVVAGGVLAGAVAVASFFLRNKRR
partner: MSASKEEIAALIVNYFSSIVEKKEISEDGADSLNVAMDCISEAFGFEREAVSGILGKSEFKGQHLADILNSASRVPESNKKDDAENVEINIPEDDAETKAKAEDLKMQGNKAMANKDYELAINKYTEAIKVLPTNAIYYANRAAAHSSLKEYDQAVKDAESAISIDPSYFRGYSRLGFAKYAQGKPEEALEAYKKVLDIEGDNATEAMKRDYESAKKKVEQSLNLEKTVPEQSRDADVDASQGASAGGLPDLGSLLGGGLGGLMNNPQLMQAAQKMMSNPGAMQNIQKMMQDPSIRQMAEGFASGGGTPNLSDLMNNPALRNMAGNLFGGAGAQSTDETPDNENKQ
B2: Small glutamine-rich tetratricopeptide repeat-containing protein 2 (Saccharomyces cerevisiae), Q12118 (parent)
chain: B1 partner
B3: Small glutamine-rich tetratricopeptide repeat-containing protein 2 (Saccharomyces cerevisiae), Q12118 (parent)
chain: B1 partner
partner: B1 chain

The first assay covers variants of B1. Conditions: with sgt2_yeast SGT2, Q12118.
G136L;G137L;G141L;A142L: the “effect of a mutation on the interaction” value is “increasing interaction strength”.

In the next assay the parent is B2. Particulars: with sec22_yeast SEC22, P22214.
Chain of sec22_yeast SEC22, P22214 (P22214 whole entry): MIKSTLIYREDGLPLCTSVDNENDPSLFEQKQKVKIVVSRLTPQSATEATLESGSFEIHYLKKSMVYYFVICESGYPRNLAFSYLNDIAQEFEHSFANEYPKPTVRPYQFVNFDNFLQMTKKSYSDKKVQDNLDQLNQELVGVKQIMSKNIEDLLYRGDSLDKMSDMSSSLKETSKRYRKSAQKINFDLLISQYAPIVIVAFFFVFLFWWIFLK
For the variant R171A;R175A, the “effect of a mutation on the interaction” value is listed as “with no effect”.

The variants in a further assay derive from B3. Conditions: with fis1_yeast FIS1, P40515.
Turning to R171A;R175A, the “effect of a mutation on the interaction” value was “with no effect”.
